Measurements: patent publication US20240383994A1 (CHIA TAI TIANQING PHARMACEUTICAL GROUP, published 2024)
Where two headings read alike, the source gives them in different places.

What was measured:
[1] = target: T1, human CD40 (hCD40), full length, on cells (human, UniProt P25942 21-277); assay: cell-based or functional assay
[2] = target: T1, human CD40 (hCD40), full length, on …; assay: flow cytometry (MFI) on CHO-K1-hCD40 cells, PE anti-human IgG detection
[3] = target: T2, CynoCD40-His protein (Acro, Cat. No.: CD0-C52H6) (cynomolgus monkey, UniProt P25942 21-193 (human entry)); assay: BLI (Fortebio Octet RED96e), antibody captured on AHC sensor, antigen 1.56-100 nM, 1:1 model
T2 construct: Bought protein; also called cynomolgus monkey CD40 antigen; not shown: His tag
T2 chain: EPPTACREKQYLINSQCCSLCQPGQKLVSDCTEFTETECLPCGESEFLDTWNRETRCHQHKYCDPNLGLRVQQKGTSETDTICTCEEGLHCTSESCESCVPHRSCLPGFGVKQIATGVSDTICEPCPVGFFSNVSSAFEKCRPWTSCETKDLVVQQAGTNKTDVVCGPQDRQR
Procedure: (§1) The affinity of humanized anti-CD40 antibodies to an hCD40-His protein (Acro, Cat. No.: CD0-H5228) and a CynoCD40-His protein (Acro, Cat. No.: CD0-C52H6) was detected by a ForteBio molecular interaction system. Firstly, an AHC biosensor (Fortebio, Cat. No.: 18-5060) was activated, and then immersed in an anti-CD40 antibody solution at a final concentration of 5 μg/mL to capture the antibodies. Serially 2-fold diluted hCD40-His protein and CynoCD40-His protein in a final concentration range of 1.56 nM-100 nM were then […] the AHC biosensor. The response signals were detected in real time on a Fortebio molecular interaction system (Fortebio Octet RED96e) to give association and dissociation curves. After the completion of dissociation in each cycle, the AHC biosensor was regenerated for the next capture; the procedure was repeated until the affinity of the different antibodies for CD40 was determined. The resulting data were analyzed by Fortebio Data Analysis 11.0 software using a 1:1 (Langmuir) binding model to determine the Kₐ (Kₒₙ) and Kd (Kdis) values, and the dissociation constant KD was calculated by KD=Kd/Kₐ. See www.fortebio.com for more detailed detection procedures and related information.

[4] = target: T3, hCD40-His protein (Acro, Cat. No.: CD0-H5228) (human, UniProt P25942 21-193); assay: as above
T3 construct: Bought protein; also called human CD40 antigen; not shown: His tag
Procedure: as §1

[5] = target: T1, human CD40 (hCD40), full length, on …; assay: cell-based or functional assay; remark: listed apart in the source
[6] = target: T1, human CD40 (hCD40), full length, on …; assay: cell-based or functional assay; remark: listed apart in the source
[7] = target: T1, human CD40 (hCD40), full length, on …; assay: flow cytometry (MFI) on 293T-hCD40-NFκB cells, PE anti-human IgG detection
[8] = target: T4, hCD40-mFc (human); assay: flow cytometry, blocking of hCD40-mFc (2 µg/mL) binding to CHO-K1-hCD40L cells
T4 construct: Prepared in-house in CHO cells; also called human CD40 recombinant protein containing a mouse antibody heavy chain Fc; Human CD40-mFc
Procedure: A CHO-K1-hCD40L cell suspension and a CHO-K1-CynoCD40L cell suspension at a cell concentration of 3×10⁵ cells/mL were separately added into a 96-well U-bottom plate at 100 μL/well. An hCD40-mFc protein at a final concentration of 2 μg/mL (prepared in-house, SEQ ID NO: 64) or a cynoCD40-mFc protein at a final concentration of 2 μg/mL (prepared in-house, SEQ ID NO: 65) was added correspondingly, before serially 2-fold diluted anti-CD40 antibodies in a final concentration range of 312.5 ng/ml-40000 ng/ml were added. The mixture was mixed well, and then incubated at 4° C. for 1 h. The cells were washed with PBS containing 2% of FBS, and then a PE-conjugated goat anti-mouse IgG (H+L) antibody (Abcam, Cat. No.: ab97041) diluted at a volume ratio of 1:500 was added, and the mixture was incubated at 4° C. for 0.5 h. The cells were washed with PBS containing 2% of […], and then resuspended in PBS containing 2% of FBS. The fluorescence signals were detected on a flow cytometer (Sartorius IQue3). The activity of anti-CD40 antibodies to block the binding of CHO-K1-hCD40L cells to an hCD40-mFc protein and CHO-K1-cynoCD40L cells to a cynoCD40-mFc protein was analyzed by the mean fluorescence intensity (MFI) of staining, and the IC₅₀ value was calculated by GraphPad Prism software.

[9] = target: T1, human CD40 (hCD40), full length, on …; assay: cell-based or functional assay; remark: listed apart in the source

B1: Iscalimab (CFZ533) (antibody, human IgG1, kappa, N297A, V domains shown)
VH: QVQLVESGGGVVQPGRSLRLSCAASGFTFSSYGMHWVRQAPGKGLEWVAVISYEESNRYHADSVKGRFTISRDNSKITLYLQMNSLRTEDTAVYYCARDGGIAAPGPDYWGQGTLVTVSS
VL: DIVMTQSPLSLTVTPGEPASISCRSSQSLLYSNGYNYLDWYLQKPGQSPQVLISLGSNRASGVPDRFSGSGSGTDFTLKISRVEAEDVGVYYCMQARQTPFTFGPGTKVDIRR
notes: also called BM; benchmark
IC50, inhibition of Ramos cell apoptosis induced by CD40L and IL-4 [1]: 0.0183 nM
Inhibition, % of Ramos cell apoptosis at 0.064 ng/L (so in the source) [1]: 4%
Inhibition, % of Ramos cell apoptosis at 0.32 ng/L (so in the source) [1]: 12%
Inhibition, % of Ramos cell apoptosis at 1.6 ng/L (so in the source) [1]: 41%
Inhibition, % of Ramos cell apoptosis at 8 ng/L (so in the source) [1]: 85%
Inhibition, % of Ramos cell apoptosis at 40 ng/L (so in the source) [1]: 97%
Inhibition, % of Ramos cell apoptosis at 200 ng/L (so in the source) [1]: 99%
Inhibition, % of Ramos cell apoptosis at 1000 ng/L (so in the source) [1]: 98%
EC50 [2]: 0.36 nM
Kd [3]: 0.0559 nM
koff [3]: 4.3e-05 s⁻¹
kon [3]: 769000 M⁻¹ s⁻¹
Kd [4]: 0.118 nM
koff [4]: 5.61e-05 s⁻¹
kon [4]: 474000 M⁻¹ s⁻¹
IC50 (read off the curve); NF-κB luciferase reporter (RLU), 293T-hCD40-NFκB cells co-cultured 1:1 with CHO-K1-hCD40L cells [5]: ~8 ng/mL
MFI value (CD95 on Ramos cells), Fc crosslinking with anti-human IgG Fcγ antibody, 1 µg/mL antibody [6]: 12500 MFI
MFI value (CD95 on Ramos cells), Fc crosslinking with anti-human IgG Fcγ antibody, 10 µg/mL antibody [6]: 12100 MFI
EC50 (read off the curve) [7]: ~10 ng/mL
IC50 [8]: 20.6 nM
IC50, inhibition of Ramos cell apoptosis induced by CD40L and IL-4 [9]: 0.0247 nM
Inhibition, % of Ramos cell apoptosis at 0.0128 ng/mL [9]: -26%
Inhibition, % of Ramos cell apoptosis at 0.064 ng/mL [9]: -24%
Inhibition, % of Ramos cell apoptosis at 0.32 ng/mL [9]: -10%
Inhibition, % of Ramos cell apoptosis at 1.6 ng/mL [9]: 5%
Inhibition, % of Ramos cell apoptosis at 8 ng/mL [9]: 72%
Inhibition, % of Ramos cell apoptosis at 40 ng/mL [9]: 98%
Inhibition, % of Ramos cell apoptosis at 200 ng/mL [9]: 100%
Inhibition, % of Ramos cell apoptosis at 1000 ng/mL [9]: 101%
